Where a chain is given by its changes, count along the chain named.
Legend:
Conditions in all cases: tags: American Diagnostica 4500PC/4900PC, E. coli expressed
[1] = target: T1, TFPI (tissue factor pathway inhibitor, full-length) (Homo sapiens, UniProt P10646 SEQ:1-276); assay: competition; dot-blot; CAT and FXa criteria not met
Description: (§1) Each molecule was evaluated for binding to tissue factor pathway inhibitor (TFPI) in a binding-competition assay. For these experiments, 10 nM human TFPI (American Diagnostica, Stamford, Conn., catalog #4500PC) was incubated with trace amounts of radiolabeled ARC17480 and 5000 nM, 1666.67 nM, 555.56 nM, 185.19 nM, 61.73 nM, 20.58 nM, 6.86 nM, 2.29 nM, 0.76 nM or 0.25 nM of unlabeled competitor aptamer. ARC17480 was included as a competitor in every experiment as a control. For each molecule, the percentage of radiolabeled ARC17480 bound at each competitor aptamer concentration was used for analysis. The percentage of radiolabeled ARC17480 bound was plotted as a function of aptamer concentration and fit to the equation y=(max/(1+x/IC₅₀))+int, where y=the percentage of radiolabeled ARC17480 bound, x=the concentration of aptamer, max=the maximum radiolabeled ARC17480 bound, and int=the y-intercept, to generate an IC₅₀ value for binding-competition. The IC₅₀ of each aptamer was compared to the IC₅₀ of ARC17480 that was evaluated in the same experiment. A substitution was considered tolerated in the binding-competition assay if the IC₅₀ of that molecule was not more than 5-fold greater than that of ARC17480 evaluated in the same experiment. Tolerated substitutions are indicated in Table 37 as meeting the assay criteria (“yes”) or not meeting the assay criteria (“no”).

[2] = target: T1, TFPI (tissue factor pathway inhibitor, …); assay: competition; meets binding-competition criterion; CAT and FXa no
Description: (§2) The substituted ARC17480 molecules were assayed for binding and function. The assays used for this evaluation were the calibrated automated thrombogram (CAT) assay, a dot-blot binding-competition assay and a FXa activity assay. The results of these assays are summarized in Table 40 and depicted in FIG. 147. A mutation was considered tolerated for activity if it met the criteria of at least two of the three assays that were carried out. Mutations that are tolerated (“yes”) and not tolerated (“no”) are identified in Table 40. The experimental details and the criteria used for each assay are described in the following paragraphs. The molecules described in this example were first tested in the CAT assay and the dot-blot binding-competition assay. In most cases, molecules were only tested in the FXa assay if there was a discrepancy between the results in the CAT assay and the dot-blot binding-competition assay.
Each molecule was evaluated for binding to tissue factor pathway inhibitor (TFPI) in a binding-competition assay. For these experiments, 10 nM human TFPI (American Diagnostica, Stamford, Conn., catalog #4900PC) was incubated with trace amounts of radiolabeled ARC17480 and 5000 nM, 1666.67 nM, 555.56 nM, 185.19 nM, 61.73 nM, 20.58 nM, 6.86 nM, 2.29 nM, 0.76 nM or 0.25 nM of unlabeled competitor aptamer. ARC17480 was included as a competitor in every experiment as a control. For each molecule, the percentage of radiolabeled ARC17480 bound at each competitor aptamer concentration was used for analysis. […] The IC₅₀ of each aptamer was compared to the IC₅₀ of ARC17480 that was evaluated in the same experiment. A mutation was considered tolerated in the binding-competition assay if the IC₅₀ of that molecule was not more than 5-fold greater than that of ARC17480 evaluated in the same experiment. […]

[3] = target: T1, TFPI (tissue factor pathway inhibitor, …); assay: competition; dot-blot
Description: as §2
(§3) Each molecule was evaluated for binding to tissue factor pathway inhibitor (TFPI) in a binding-competition assay. For these experiments, 10 nM human TFPI (American Diagnostica, Stamford, Conn., catalog #4900PC) was incubated with trace amounts of radiolabeled ARC17480 and 5000 nM, 1666.67 nM, 555.56 nM, 185.19 nM, 61.73 nM, 20.58 nM, 6.86 nM, 2.29 nM, 0.76 nM or 0.25 nM of unlabeled competitor aptamer. ARC17480 was included as a competitor in every experiment as a control. For each molecule, the percentage of radiolabeled ARC17480 bound at each competitor aptamer concentration was used for analysis. The percentage of radiolabeled ARC17480 bound was plotted as a function of aptamer concentration and fit to the equation y=(max/(1+x/IC₅₀))+int, where y=the percentage of radiolabeled ARC17480 bound, x=the concentration of aptamer, max=the maximum radiolabeled ARC17480 bound, and int=the y-intercept, to generate an IC₅₀ value for binding-competition. The IC₅₀ of each aptamer was compared to the IC₅₀ of ARC17480 that was evaluated in the same experiment. A mutation was considered tolerated in the binding-competition assay if the IC₅₀ of that molecule was not more than 5-fold greater than that of ARC17480 evaluated in the same experiment. Tolerated mutations are indicated in Table 40 as meeting the assay criteria (“yes”) or not meeting the assay criteria (“no”).

[4] = target: T1, TFPI (tissue factor pathway inhibitor, …); assay: competition; meets binding-competition criterion; CAT no
Description: as §2
Each molecule was evaluated for binding to tissue factor pathway inhibitor (TFPI) in a binding-competition assay. […] The IC₅₀ of each aptamer was compared to the IC₅₀ of ARC17480 that was evaluated in the same experiment. A mutation was considered tolerated in the binding-competition assay if the IC₅₀ of that molecule was not more than 5-fold greater than that of ARC17480 evaluated in the same experiment. […]

[5] = target: T1, TFPI (tissue factor pathway inhibitor, …); assay: competition; dot-blot; CAT criterion not met
Description: as §2, §3

[6] = target: T1, TFPI (tissue factor pathway inhibitor, …); assay: competition; meets binding-competition criterion
Description: as §2, §3

[7] = target: T1, TFPI (tissue factor pathway inhibitor, …); assay: competition; dot-blot; FXa assay criterion not met
Description: as §1

[8] = target: T1, TFPI (tissue factor pathway inhibitor, …); assay: competition; meets binding-competition criterion; CAT no; remark: listed apart in the source
Description: Each molecule was evaluated for binding to tissue factor pathway inhibitor (TFPI) in a binding-competition assay. For these experiments, 10 nM human TFPI (American Diagnostica, Stamford, Conn., catalog #4500PC) was incubated with trace amounts of radiolabeled ARC17480 and 5000 nM, 1666.67 nM, 555.56 nM, 185.19 nM, 61.73 nM, 20.58 nM, 6.86 nM, 2.29 nM, 0.76 nM or 0.25 nM of unlabeled competitor aptamer. ARC17480 was included as a competitor in every experiment as a control. For each molecule, the percentage of radiolabeled ARC17480 bound at each competitor aptamer concentration was used for analysis. The percentage of radiolabeled ARC17480 bound was plotted as a function of aptamer concentration and fit to the equation y=(max/(1+x/IC₅₀))+int, where y=the percentage of radiolabeled ARC17480 bound, x=the concentration of aptamer, max=the maximum radiolabeled ARC17480 bound, and int=the y-intercept, to generate an IC₅₀ value for binding-competition. The IC₅₀ of each aptamer was compared to the IC₅₀ of ARC17480 that was evaluated in the same experiment. A substitution was considered tolerated in the binding-competition assay if the IC₅₀ of that molecule was not more than 5-fold greater than that of ARC17480 evaluated in the same experiment. Tolerated substitutions are indicated in Table 38 as meeting the assay criteria (“yes”) or not meeting the assay criteria (“no”).

T1 sequence (P10646 29-304): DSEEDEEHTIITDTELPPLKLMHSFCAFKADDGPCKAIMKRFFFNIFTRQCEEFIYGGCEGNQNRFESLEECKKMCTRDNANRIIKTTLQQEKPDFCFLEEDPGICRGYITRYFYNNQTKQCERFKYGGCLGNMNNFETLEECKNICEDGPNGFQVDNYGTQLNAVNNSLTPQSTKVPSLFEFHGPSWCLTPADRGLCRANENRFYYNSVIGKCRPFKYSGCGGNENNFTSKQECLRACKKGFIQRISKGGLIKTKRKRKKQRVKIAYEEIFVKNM

B1: ARC19462 (XNA)
mixed: GGAAUAUACUUGGCUCGTUAGGUGCGUAUAUA
modifications: 2'-OMe except dC9, dC14, dC16, dC25 and dT18; 3' idT
binding signal [1]: ≤ 5 fold IC50 vs ARC17480

B2: ARC33155 (mixed)
RNA: B1 mixed with U7C, T18U
modifications: 2'-OMe A/G/U and mC7, other C 2'-deoxy, 3' idT
binding signal [2]: ≤ 5 fold IC50 of ARC17480

B3: ARC34859 (XNA)
RNA: B1 mixed with G2C, T18U
modifications: 2'-OMe except dC9, dC14, dC16, dC25; 3' idT
binding signal [3]: ≤ 5 fold IC50 vs ARC17480

B4: ARC33177 (mixed)
RNA: B1 mixed with T18U, U29C
modifications: 2'-OMe A/G/U and mC29, other C 2'-deoxy, 3' idT
binding signal [4]: ≤ 5 fold IC50 of ARC17480

B5: ARC19456 (XNA)
mixed: B1 mixed with U10T, T18U
modifications: 2'-OMe except dC9, dC14, dC16, dC25 and dT10; 3' idT
binding signal [1]: ≤ 5 fold IC50 vs ARC17480

B6: ARC34864 (XNA)
RNA: B1 mixed with U5A, T18U
modifications: 2'-OMe except dC9, dC14, dC16, dC25; 3' idT
binding signal [5]: ≤ 5 fold IC50 vs ARC17480

B7: ARC34857 (XNA)
RNA: B1 mixed with G1C, T18U
modifications: 2'-OMe except dC9, dC14, dC16, dC25; 3' idT
binding signal [3]: ≤ 5 fold IC50 vs ARC17480

B8: ARC34863 (XNA)
RNA: B1 mixed with A4C, T18U
modifications: 2'-OMe except dC9, dC14, dC16, dC25; 3' idT
binding signal [3]: ≤ 5 fold IC50 vs ARC17480

B9: ARC34871 (XNA)
RNA: B1 mixed with A8C, T18U
modifications: 2'-OMe except dC9, dC14, dC16, dC25; 3' idT
binding signal [5]: > 5 fold IC50 vs ARC17480

B10: ARC33153 (mixed)
RNA: B1 mixed with U5C, T18U
modifications: 2'-OMe A/G/U and mC5, other C 2'-deoxy, 3' idT
binding signal [6]: ≤ 5 fold IC50 of ARC17480

B11: ARC34861 (XNA)
RNA: B1 mixed with A3C, T18U
modifications: 2'-OMe except dC9, dC14, dC16, dC25; 3' idT
binding signal [3]: ≤ 5 fold IC50 vs ARC17480

B12: ARC33149 (mixed)
RNA: B1 mixed with G1U, T18U
modifications: 2'-OMe A/G/U, 2'-deoxy C, 3' idT
binding signal [6]: ≤ 5 fold IC50 of ARC17480

B13: ARC18545 (XNA)
RNA: B1 mixed with T18U
modifications: 2'-OMe except dC9, dC25; 2'-OMe C14 and C16; 3' idT
binding signal [7]: ≤ 5 fold IC50 vs ARC17480

B14: ARC34860 (XNA)
RNA: B1 mixed with A3G, T18U
modifications: 2'-OMe except dC9, dC14, dC16, dC25; 3' idT
binding signal [3]: ≤ 5 fold IC50 vs ARC17480

B15: ARC18541 (XNA)
RNA: B1 mixed with T18U
modifications: 2'-OMe except dC9, dC14, dC16; 2'-OMe C25; 3' idT
binding signal [7]: ≤ 5 fold IC50 vs ARC17480

B16: ARC33151 (mixed)
RNA: B1 mixed with A3U, T18U
modifications: 2'-OMe A/G/U, 2'-deoxy C, 3' idT
binding signal [6]: ≤ 5 fold IC50 of ARC17480

B17: ARC33141 (mixed)
RNA: GGAAUAUACUUGGCUCGUUAGGUGCGUAAUA
modifications: 2'-OMe A/G/U, 2'-deoxy C, 3' idT
binding signal [8]: ≤ 5 fold IC50 of ARC17480

B18: ARC33122 (mixed)
RNA: GGAAUUACUUGGCUCGUUAGGUGCGUAUAUA
modifications: 2'-OMe A/G/U, 2'-deoxy C, 3' idT
binding signal [8]: ≤ 5 fold IC50 of ARC17480

Reference: patent US20110281938, “APTAMERS TO TISSUE FACTOR PATHWAY INHIBITOR AND THEIR USE AS BLEEDING DISORDER THERAPEUTICS” (Baxter Healthcare S.A., published 2011)
